Measured values: US20050090429 (published 2005)

B1: YS-1-44 (peptide)
chain: GFWWKTFG
modifications: not fully specified; PTR 3213 core; fluorescein amide, betaAla linker; cyclic GlyS2* to GlyS2*; D-Trp; C-terminal amide
B2: YS-1-54 (peptide)
chain: GFWWKTFG
modifications: not fully specified; PTR 3213 core; fluorescein thiourea, no linker; cyclic GlyS2* to GlyS2*; D-Trp; C-terminal amide
B3: YS-1-76 (peptide)
chain: FGFWWKTFG
modifications: not fully specified; PTR 3219 core; fluorescein amide, aminohexanoic linker; cyclic GlyS2* to GlyS2*; D-Phe1, D-Trp; C-terminal amide
B4: YS-1-58 (peptide)
chain: FGFWWKTFG
modifications: not fully specified; PTR 3219 core; fluorescein thiourea, Gly linker; cyclic GlyS2* to GlyS2*; D-Phe1, D-Trp; C-terminal amide
B5: YS-1-52 (peptide)
chain: GFWWKTFG
modifications: not fully specified; PTR 3213 core; fluorescein amide, aminopentanoic linker; cyclic GlyS2* to GlyS2*; D-Trp; C-terminal amide
B6: YS-1-29 (peptide)
chain: XFWWKTFG
modifications: not fully specified; PTR 3173-NH2 core; X = GABA; fluorescein amide, aminopentanoic linker; backbone cyclic; D-Trp; C-terminal amide
B7: YS-1-62 (peptide)
chain: FGFWWKTFG
modifications: not fully specified; PTR 3219 core; 5-(aminothionyl)fluorescein-betaAla conjugate; cyclic GlyS2* to GlyS2*; D-Phe1, D-Trp; C-terminal amide
B8: PTR 1007A-01 (peptide)
chain: XFWWKTFG
modifications: X = Dab; 5- and 6-carboxyfluorescein conjugate; backbone cyclic (Dab* to GlyC3*); D-Trp4; C-terminal GlyC3, amide
B9: YS-1-86 (peptide)
chain: FCFWWKTFG
modifications: not fully specified; PTR 3207 core; 5-(aminothionyl)fluorescein-GABA conjugate; cyclic Cys* to GlyS2*; D-Phe1, D-Trp; C-terminal amide
B10: YS-1-64 (peptide)
chain: FGFWWKTFG
modifications: not fully specified; PTR 3219 core; 5- and 6-carboxyfluorescein-betaAla conjugate; cyclic GlyS2* to GlyS2*; D-Phe1, D-Trp; C-terminal amide
B11: YS-1-48 (peptide)
chain: GFWWKTFG
modifications: not fully specified; PTR 3213 core; 5- and 6-carboxyfluorescein-GABA conjugate; cyclic GlyS2* to GlyS2*; D-Trp; C-terminal amide
B12: YS-1-68 (peptide)
chain: FGFWWKTFG
modifications: not fully specified; PTR 3219 core; 5- and 6-carboxyfluorescein-GABA conjugate; cyclic GlyS2* to GlyS2*; D-Phe1, D-Trp; C-terminal amide
B13: YS-1-70 (peptide)
chain: FGFWWKTFG
modifications: not fully specified; PTR 3219 core; 5-(aminothionyl)fluorescein-aminopentanoyl conjugate; cyclic GlyS2* to GlyS2*; D-Phe1, D-Trp; C-terminal amide
B14: PTR 1017A-01 (peptide)
chain: KXFWWKTFG
modifications: not fully specified; 5- and 6-carboxyfluorescein-Lys; X = GABA; backbone cyclic (GABA* to GlyC3*); D-Trp; C-terminal amide

Target: T1, human SST-R2 (human, UniProt P30874)
Experiment: competition, SRIF-14 displacement

T1 sequence (P30874 whole entry): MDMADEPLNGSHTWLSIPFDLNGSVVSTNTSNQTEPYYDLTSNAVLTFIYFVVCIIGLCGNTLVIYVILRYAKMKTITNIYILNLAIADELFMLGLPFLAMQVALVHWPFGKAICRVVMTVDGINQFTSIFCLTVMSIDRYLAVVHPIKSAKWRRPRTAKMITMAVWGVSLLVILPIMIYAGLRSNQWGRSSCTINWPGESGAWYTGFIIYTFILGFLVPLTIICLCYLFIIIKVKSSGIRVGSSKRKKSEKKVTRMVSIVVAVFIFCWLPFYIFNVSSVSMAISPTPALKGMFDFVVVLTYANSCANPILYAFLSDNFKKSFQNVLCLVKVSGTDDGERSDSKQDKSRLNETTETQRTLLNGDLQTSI

Going from B1 to B2, the IC50 rises from 19 nM to 48 nM (2.5-fold).

B3 and B4 are within 1.5-fold of each other in IC50: 13 nM for the first, 18 nM for the second.

First: B5
Second: B6
The IC50 of the first is 3.6-fold lower: 9 nM for the first, 32 nM for the second. The first is the more potent here.

Target: T1, human SST-R2
Experiment: competition, 125I-Tyr11-SRIF-14 radioligand

First: B7
Second: B8
The IC50 of the first is 26-fold lower: 3 nM for the first, 78 nM for the second. The first is the more potent here.

First: B9
Second: B10
The IC50 of the first is 2.3-fold lower: 1.7 nM for the first, 3.9 nM for the second.

B11 and B12 are within 1.5-fold of each other in IC50: 5.4 nM for the first, 5.7 nM for the second.

Compared with B13, B14 is 4.6-fold higher in IC50: 2.9 nM for the first, 13.2 nM for the second.
